{"source": "patent US11274129B2", "about": "“Methods for protein tyrosine phosphorylation profiling with variant SH2 domains” (priority 2016, dated 2022)", "molecules": {"B1": {"name": "QuadM-TrM tandem Superbinder: QuadM human Src Superbinder in tandem with the TrM human Src Superbinder in a single protein (protein)", "chain": "DSIQAEEWYFGKITRRESERLLLNAENPRGTFLVRESETVKGAYALSVSDFDNAKGLNVRHYLIRKLDSGGFYIWSRTQFNSLQQLVAYYSKHADGLSHRLTTVSPTSKGGSGGSMDSIQAEEWYFGKITRRESERLLLNAENPRGTFLVRESETVKGAYALSVSDFDNAKGLNVRHYLIRKLDSGGFYITSRTQFNSLQQLVAYYSKHADGLSHRLTTVSPTSK", "modifications": "SH2 protein domain; QuadM-TrM human Src SH2 tandem domain"}}, "tested_on": "mixture of 40 different pTyr-including peptides derived from ITRMs", "assay": "Capture of pTyr-including peptides from a mixture of ITRM peptides by QuadM-TrM tandem Superbinder versus TrM human Src SH2 Superbinder, scheduled PRM", "assay_type": "binding", "details": "for (QT-TrM)/mean: QuadM-TrM tandem vs TrM human Src SH2 Superbinder, PRM peak area", "from_the_text": "A QuadM-TrM tandem Superbinder (SEQ ID NO: 15) was produced in E. Coli by expressing a recombinant DNA that contained the gene encoding the QuadM human Src Superbinder (SEQ ID NO: 12) in tandem with the gene encoding the TrM human Src Superbinder (SEQ ID NO: 5). Equal molar amounts (200 pmole) of the QuadM-TrM tandem Superbinder and the TrM human Src SH2 Superbinder were used to capture pTyr-including peptides from a mixture of 40 different pTyr-including peptides (200 fmole each) derived from ITRMs. The isolated peptides were identified by scheduled PRM and quantified based on the corresponding MS peak area.\nShown are the relative preferences of each pTyr-including peptide for the QuadM-TrM tandem Superbinder versus the TrM human Src SH2 Superbinder, as defined by the value of “(QT-TrM)/Mean”, where “QT” represents the amount of pTyr-including peptide captured by the QuadM-TrM tandem Superbinder, “TrM” represents the amount of pTyr-including peptide captured by the TrM human Src SH2 Superbinder, and “Mean” represents the mean amount of pTyr-including peptide captured by both the QuadM-TrM tandem Superbinder and the TrM human Src SH2 Superbinder. Yellow and blue shaded boxes indicate hydrophobic and hydrophilic residues, respectively, at the pTyr+3 position in the sequence of the pTyr-including peptide.", "data": [{"molecule": "B1", "values": [{"measurement": "capture of pTyr-including peptides relative to the TrM human Src Superbinder", "setting": "200 pmole Superbinder, 200 fmole each peptide", "result": "improved capture of pTyr-including peptides"}, {"measurement": "(QT-TrM)/mean", "setting": "peptide ARFGAP2_pY445 EVDAEpYEAR", "result": 0.3}, {"measurement": "(QT-TrM)/mean", "setting": "peptide ARHGAP15_pY219 SSSTELLSHpYDSDIK", "result": 0.3}, {"measurement": "(QT-TrM)/mean", "setting": "peptide ARHGEF6_pY644 KPSEEEpYVIR", "result": 1.2}, {"measurement": "(QT-TrM)/mean", "setting": "peptide ARID1A_pY229 SAYPPPAPApYALSSPR", "result": 0.3}, {"measurement": "(QT-TrM)/mean", "setting": "peptide ASNS_pY216 DVPLHALpYDNVEK", "result": 0.3}, {"measurement": "(QT-TrM)/mean", "setting": "peptide C9orf78_pY277 ATDDpYHYEK", "result": 0.6}, {"measurement": "(QT-TrM)/mean", "setting": "peptide CD3D_pY160 DDAQpYSHLGGNWAR", "result": 0.3}, {"measurement": "(QT-TrM)/mean", "setting": "peptide CD3E_pY188 ERPPPVPNPDpYEPIR", "result": 0.5}, {"measurement": "(QT-TrM)/mean", "setting": "peptide CD3E_pY199 DLpYSGLNQR", "result": 0.0}, {"measurement": "(QT-TrM)/mean", "setting": "peptide CD3G_pY160 QTLLPNDQLpYQPLK", "result": 0.2}, {"measurement": "(QT-TrM)/mean", "setting": "peptide CD3G_pY171 EDDQpYSHLQGNQLR", "result": 0.0}, {"measurement": "(QT-TrM)/mean", "setting": "peptide CD28_pY206/209 HpYQPpYAPPR", "result": 0.3}, {"measurement": "(QT-TrM)/mean", "setting": "peptide CD28_pY218 DFAApYR", "result": 1.3}, {"measurement": "(QT-TrM)/mean", "setting": "peptide CD84_pY296 IpYDEILQSK", "result": "−0.1"}, {"measurement": "(QT-TrM)/mean", "setting": "peptide CD84_pY316 EEPVNTVpYSEVQFADK", "result": 0.1}, {"measurement": "(QT-TrM)/mean", "setting": "peptide CD247_pY72 SADAPAYQQGQNQLpYNELNLGR", "result": 1.5}, {"measurement": "(QT-TrM)/mean", "setting": "peptide CD247_pY111 NPQEGLpYNELQK", "result": 0.0}, {"measurement": "(QT-TrM)/mean", "setting": "peptide CD247_pY142 GHDGLpYQGLSTATK", "result": 0.4}, {"measurement": "(QT-TrM)/mean", "setting": "peptide CLPTM1L_pY527 VNEFGESpYEEK", "result": 0.3}, {"measurement": "(QT-TrM)/mean", "setting": "peptide DBN1_pY34 ALpYTYEDGSDDLK", "result": 0.0}, {"measurement": "(QT-TrM)/mean", "setting": "peptide EXOC4_pY51 LEEApYEK", "result": 0.5}, {"measurement": "(QT-TrM)/mean", "setting": "peptide HCLS1_pY175 AALGpYDYK", "result": 0.3}, {"measurement": "(QT-TrM)/mean", "setting": "peptide ITK_pY512 FVLDDQpYTSSTGTK", "result": 1.0}, {"measurement": "(QT-TrM)/mean", "setting": "peptide LAT_pY110 DSDGANSVASpYENEGASGlR", "result": "−0.2"}, {"measurement": "(QT-TrM)/mean", "setting": "peptide LAT_pY220 EpYVNVSQELHPGAAK", "result": 0.2}, {"measurement": "(QT-TrM)/mean", "setting": "peptide LCP1_pY300 AYpYHLLEQVAPK", "result": 0.4}, {"measurement": "(QT-TrM)/mean", "setting": "peptide LIMD2_pY102 GNpYDEGFGR", "result": 0.0}, {"measurement": "(QT-TrM)/mean", "setting": "peptide PJA2_pY28 AVWPKPAGGpYQTITGR", "result": 0.4}, {"measurement": "(QT-TrM)/mean", "setting": "peptide PLCG2_pY1245 EFSVNENQLQLpYQEK", "result": 1.2}, {"measurement": "(QT-TrM)/mean", "setting": "peptide PTPN7_pY149 AQSQEDGDpYINANYIR", "result": 0.0}, {"measurement": "(QT-TrM)/mean", "setting": "peptide RBMX_pY335 SDLpYSSGR", "result": 0.6}, {"measurement": "(QT-TrM)/mean", "setting": "peptide RFTN1_pY20 RPGNIpYSTLK", "result": 0.3}, {"measurement": "(QT-TrM)/mean", "setting": "peptide SIT1_pY148 pYSEVVLDSEPK", "result": "−0.2"}, {"measurement": "(QT-TrM)/mean", "setting": "peptide SPEN_pY1399 ASALpYESSR", "result": "−0.1"}, {"measurement": "(QT-TrM)/mean", "setting": "peptide THUMPD1_pY22 AQpYVLAK", "result": "−0.2"}, {"measurement": "(QT-TrM)/mean", "setting": "peptide TLR7_pY1041 NALATDNHVApYSQVFK", "result": 0.1}, {"measurement": "(QT-TrM)/mean", "setting": "peptide TRAF3IP3_pY178/179 GQQIpYpYHK", "result": 0.9}, {"measurement": "(QT-TrM)/mean", "setting": "peptide TRAF3IP3_pY179 GQQIYpYHK", "result": 1.5}, {"measurement": "(QT-TrM)/mean", "setting": "peptide ZAP70_pY164 MPWpYHSSLTR", "result": 0.2}, {"measurement": "(QT-TrM)/mean", "setting": "peptide ZAP70_pY292 IDTLNSDGpYTPEPAR", "result": 0.3}]}]}
